Experimental data taken from patent US20030073629A1 (published 2003).
Blank lines part the entries; values can stand above or below the binder they belong to.

B1: endogenous mature Omi from HEK293 cell extracts (38 kDa band) (enzyme)
chain: AVPSPPPASPRSQYNFIADVVEKTAPAVVYIEILDRHPFLGREVPISNGSGFVVAADGLIVTNAHVVADRRRVRVRLLSGDTYEAVVTAVDPVADIATLRIQTKEPLPTLPLGRSADVRQGEFVVAMGSPFALQNTITSGIVSSAQRPARDLGLPQTNVEYIQTDAAIDFGNSGGPLVNLDGEVIGVNTMKVTAGISFAIPSDRLREFLHRGEKKNSSSGISGSQRRYIGVMMLTLSPSILAELQLREPSFPDVQHGVLIHKVILGSPAHRAGLRPGDVILAIGEQMVQNAEDVYEAVRTQSQLAVQIRRGRETLTLYVTPEVTE
notes: also called HtrA2

Experiments:
XIAP [1] = target: T1, XIAP (human, UniProt P98170 1-497); test: far-western blot with ^35S-labeled in vitro translated XIAP
T1 construct: also called ^35S-labeled in vitro translated XIAP; ^35S-XIAP
Description: As mentioned above, the mechanism of IAP inhibition of caspases is conserved in mammals and insects. Accordingly, it is thought that other mammalian IAP-binding proteins are still undiscovered. To identify such proteins, a GST-BIR3 fusion protein was used as an affinity reagent to purify new IAP binding proteins from extracts of human HEK293 cells and mouse heart, kidney, liver and spleen tissues. […] Cells were homogenized and centrifuged once at 20,000×g and the supernatant was then subjected to centrifugation at 100,000×g. The resultant supernatant was pre-cleared with Glutathion-Sepharose beads and then incubated with GST-BIR3 bound to Glutathion-Sepharose beads for 12 hours at 4° C. The mixture was centrifuged at 500 rpm for three minutes and the GST-BIR3 bead pellet was washed three times in the lysis buffer. After binding the extracts to the GST-BIR3 protein, the bound proteins were eluted with 200 μM of the Smac IAP-binding motif peptide AVPIA (SEQ ID NO:2) at 37° C. for one hour and analyzed by far-western blotting with ³⁵S-labeled in vitro translated XIAP. Specifically, the affinity-purified proteins were subjected to SDS-PAGE electrophoresis and then transferred to a nitrocellulose membrane using standard western blotting technique. […]

XIAP [2] = target: T1, XIAP; test: co-immunoprecipitation with Flag antibody from 293T cells, XIAP immunoblot
[3] = target: B1; test: immunodepletion of 293 extracts with Smac monoclonal antibody, then GST-BIR3 pull-down
Experimental: The undepleted and depleted extracts were incubated with the GST-BIR3 protein and the bound proteins were eluted as above. The eluates were then analyzed by far-western blotting with ³⁵S-XIAP and by western blotting with the Smac antibody as described above (see FIG. 4, left and right panels, respectively). […] The asterisk in FIG. 4 indicates non-specific bands and the arrow indicates the IgG band.

[4] = target: T2, M-Omi-GFP (active Omi-GFP fusion protein without the MTS, initiator methionine retained) (human, UniProt O43464 134-458); test: GST-BIR3 precipitation of transfected cell extracts, immunoblot
T2 construct: also called Omi134-458-GFP; not shown: C-terminal GFP tag
T2 sequence: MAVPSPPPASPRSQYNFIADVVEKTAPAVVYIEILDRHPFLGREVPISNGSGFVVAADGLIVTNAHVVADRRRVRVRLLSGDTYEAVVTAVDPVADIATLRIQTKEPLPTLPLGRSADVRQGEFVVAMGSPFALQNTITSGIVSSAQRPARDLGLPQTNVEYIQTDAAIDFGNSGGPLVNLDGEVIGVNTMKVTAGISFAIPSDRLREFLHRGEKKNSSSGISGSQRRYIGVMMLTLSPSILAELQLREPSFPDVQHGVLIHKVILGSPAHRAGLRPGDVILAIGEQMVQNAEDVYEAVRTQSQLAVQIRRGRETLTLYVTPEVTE

[5] = target: T3, M-Omi-S/A-GFP (inactive S306A Omi-GFP fusion protein without the MTS, initiator methionine retained) (human, UniProt O43464 134-458); test: as above
T3 construct: not shown: C-terminal GFP tag
T3 sequence: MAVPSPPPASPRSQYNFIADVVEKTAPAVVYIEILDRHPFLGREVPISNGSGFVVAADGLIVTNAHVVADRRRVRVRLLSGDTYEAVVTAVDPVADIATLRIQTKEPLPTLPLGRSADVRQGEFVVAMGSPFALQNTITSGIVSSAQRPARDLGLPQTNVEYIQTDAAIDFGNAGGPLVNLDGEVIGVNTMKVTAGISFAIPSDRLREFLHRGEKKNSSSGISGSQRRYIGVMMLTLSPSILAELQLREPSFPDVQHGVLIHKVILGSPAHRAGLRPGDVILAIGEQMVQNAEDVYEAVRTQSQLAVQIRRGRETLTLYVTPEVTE

[6] = target: T4, Omi-S/A with the AVPS motif mutated to SSAS, from GFP-IETD-SSA (human, UniProt O43464 137-458); test: GST-BIR3 precipitation of transfected 293T cell extracts, Flag immunoblot
T4 construct: expressed as GFP-IETD fusion
T4 sequence: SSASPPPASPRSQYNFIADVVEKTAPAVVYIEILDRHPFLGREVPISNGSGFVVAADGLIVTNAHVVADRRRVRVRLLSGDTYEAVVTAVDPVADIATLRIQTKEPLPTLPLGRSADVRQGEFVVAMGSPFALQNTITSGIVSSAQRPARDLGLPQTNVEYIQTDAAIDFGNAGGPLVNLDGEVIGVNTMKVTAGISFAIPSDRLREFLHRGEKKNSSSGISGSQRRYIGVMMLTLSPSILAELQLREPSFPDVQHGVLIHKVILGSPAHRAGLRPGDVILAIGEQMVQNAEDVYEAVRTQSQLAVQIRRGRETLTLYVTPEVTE

[7] = target: T5, Omi-deltaAVPS (C-terminal His6-tagged recombinant mature Omi with the AVPS motif deleted) (human, UniProt O43464 138-458); test: GST pull-down with purified recombinant proteins, Coomassie gel
T5 construct: also called Omi-ΔAVPS
T5 sequence: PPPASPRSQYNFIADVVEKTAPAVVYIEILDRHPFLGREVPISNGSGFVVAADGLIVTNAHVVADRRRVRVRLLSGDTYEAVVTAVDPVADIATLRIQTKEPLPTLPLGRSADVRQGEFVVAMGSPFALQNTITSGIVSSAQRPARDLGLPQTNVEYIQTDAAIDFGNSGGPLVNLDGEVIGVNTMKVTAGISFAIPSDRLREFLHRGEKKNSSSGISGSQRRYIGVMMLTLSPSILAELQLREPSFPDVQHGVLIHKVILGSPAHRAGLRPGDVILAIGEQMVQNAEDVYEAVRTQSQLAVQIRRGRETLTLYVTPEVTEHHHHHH
Description: To determine whether a recombinant Omi lacking the first 133 residues (mature Omi) can interact with the GST-BIR3 fusion protein, this protein was expressed with a C-terminal His6 tag in bacteria and purified to apparent homogeneity (see FIG. 7B). […] FIGS. 7A and 7B show scanned images of Coomassie stained gels representing SDS-PAGE analysis of purified C-terminal His6-tagged recombinant wild type mature Omi (WT), Omi-ΔAVPS, Omi-S306A, and mature Smac (FIG. 7A) and recombinant Omi and Smac proteins with GST-BIR1, 2, GST-BIR3 or GST-BIR3-E314S fusion proteins (FIG. 7B). Both recombinant mature Omi and Smac were able to interact equally with the wild type GST-BIR3 protein but not with the GST-BIR3-E314S mutant ([…]). Mature Omi and Smac were also able to interact with the GST-BIR1, 2 fusion protein. […] However, deletion of the AVPS motif of mature Omi completely abolished its interaction with the GST-BIR3 fusion protein.

T1 sequence (P98170 whole entry): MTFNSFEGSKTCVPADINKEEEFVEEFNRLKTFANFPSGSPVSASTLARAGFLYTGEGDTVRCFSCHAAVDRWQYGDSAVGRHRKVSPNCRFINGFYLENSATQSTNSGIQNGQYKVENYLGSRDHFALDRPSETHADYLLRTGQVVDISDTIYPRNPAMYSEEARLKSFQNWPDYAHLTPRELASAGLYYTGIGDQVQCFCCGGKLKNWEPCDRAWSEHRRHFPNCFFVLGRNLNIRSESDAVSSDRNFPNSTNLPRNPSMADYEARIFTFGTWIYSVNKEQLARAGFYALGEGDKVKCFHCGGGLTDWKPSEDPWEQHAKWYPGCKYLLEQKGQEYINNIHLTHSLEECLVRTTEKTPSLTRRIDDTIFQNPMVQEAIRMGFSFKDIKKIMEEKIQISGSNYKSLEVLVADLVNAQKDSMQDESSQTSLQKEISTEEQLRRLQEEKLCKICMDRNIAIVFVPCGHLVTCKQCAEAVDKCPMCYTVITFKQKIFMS

Binder: B1
- binding result (XIAP [1]): binds

B3: endogenous mature Smac/Diablo from HEK293 cell extracts (23 kDa band) (other, human, UniProt Q9NR28 56-239, looked up)
chain: AVPIAQKSEPHSLSSEALMRRAVSLVTDSTSTFLSQTTYALIEAITEYTKAVYTLTSLYRQYTSLLGKMNSEEEDEVWQVIIGARAEMTSKHQEYLKLETTWMTAVGLSEMAAEAAYQTGADQASITARNHIQLVKLQVEEVHQLSRKAETKLAEAQIEELRQKTQEEGEERAESEQEAYLRED
notes: mature
- binding result [3]: no binding

Next, values leading:

- binding result (XIAP [2]): no binding
B2: mature Omi with the AVPS motif mutated to AAAS, processed in 293T cells from a C-terminal Flag-tagged mutant precursor (enzyme)
chain: AAASPPPASPRSQYNFIADVVEKTAPAVVYIEILDRHPFLGREVPISNGSGFVVAADGLIVTNAHVVADRRRVRVRLLSGDTYEAVVTAVDPVADIATLRIQTKEPLPTLPLGRSADVRQGEFVVAMGSPFALQNTITSGIVSSAQRPARDLGLPQTNVEYIQTDAAIDFGNSGGPLVNLDGEVIGVNTMKVTAGISFAIPSDRLREFLHRGEKKNSSSGISGSQRRYIGVMMLTLSPSILAELQLREPSFPDVQHGVLIHKVILGSPAHRAGLRPGDVILAIGEQMVQNAEDVYEAVRTQSQLAVQIRRGRETLTLYVTPEVTE
notes: also called AAAS mutant; not shown: C-terminal Flag tag

- binding result [4]: no binding
- binding result [5]: no binding
- binding result [6]: no binding
- binding result [7]: no binding
B4: GST-BIR3 fusion protein (BIR3 domain of human XIAP fused to GST) (other, UniProt P98170 238-358, looked up)
chain: RSESDAVSSDRNFPNSTNLPRNPSMADYEARIFTFGTWIYSVNKEQLARAGFYALGEGDKVKCFHCGGGLTDWKPSEDPWEQHAKWYPGCKYLLEQKGQEYINNIHLTHSLEECLVRTTEK
notes: domain: BIR3; also called wild type GST-BIR3; XIAP-BIR3; not shown: glutathione-S-transferase (GST) fusion partner
